# Laboratory results: patent US20200079833A1 (AstraZeneca / MedImmune, published 2020)
# Starred links: 1 amine or outer side, 2 acyl side, 3 side chain; linkers in the order of their positions; H or OH if unused. Non-standard residues stand in square brackets, D forms with d. Groups on a side chain read outwards from the residue. Primed or numbered codes have the meaning given here. No end group written: not given here. *: point of attachment. γGlu = O=C(O)[C@H](CCC(=O)[*:2])N[*:1]; αMeF = C[C@](N)(Cc1ccccc1)C(=O)O; αMeK = C[C@](N)(CCCCN)C(=O)O; Lauroyl = CCCCCCCCCCCC(=O)*; αMeS = C[C@](N)(CO)C(=O)O; PEG2′ = not defined here; Aib = CC(C)(N)C(=O)O
# T1: glucose-dependent insulinotropic peptide (gastric inhibitory polypeptide) receptor (GIPR), primary cAMP assay … (human, UniProt P48546 22-466)
# T1 sequence (looked up): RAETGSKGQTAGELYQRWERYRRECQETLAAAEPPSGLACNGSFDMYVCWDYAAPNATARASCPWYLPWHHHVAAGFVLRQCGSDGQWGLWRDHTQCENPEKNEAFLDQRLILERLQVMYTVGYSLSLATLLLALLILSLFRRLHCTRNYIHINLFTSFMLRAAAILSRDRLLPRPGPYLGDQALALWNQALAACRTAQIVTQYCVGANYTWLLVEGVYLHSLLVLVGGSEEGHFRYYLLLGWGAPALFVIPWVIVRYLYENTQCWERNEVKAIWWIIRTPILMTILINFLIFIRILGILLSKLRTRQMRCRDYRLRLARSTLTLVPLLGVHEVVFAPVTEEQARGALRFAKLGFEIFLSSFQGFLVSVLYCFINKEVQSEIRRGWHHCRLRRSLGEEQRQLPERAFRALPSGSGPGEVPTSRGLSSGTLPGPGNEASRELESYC
# Assays:
# Experiment in all cases: cell-based or functional assay
# [1] = molecular target: T1, glucose-dependent insulinotropic …
# [2] = molecular target: GLP-1 receptor (GLP-1R), primary cAMP assay cell line (human, UniProt P43220 24-463)
# [3] = molecular target: glucagon receptor (GCGR), primary cAMP assay cell line (human, UniProt P47871 26-477)
# Sequence of glucagon receptor (GCGR), primary cAMP assay cell line (P47871 26-477): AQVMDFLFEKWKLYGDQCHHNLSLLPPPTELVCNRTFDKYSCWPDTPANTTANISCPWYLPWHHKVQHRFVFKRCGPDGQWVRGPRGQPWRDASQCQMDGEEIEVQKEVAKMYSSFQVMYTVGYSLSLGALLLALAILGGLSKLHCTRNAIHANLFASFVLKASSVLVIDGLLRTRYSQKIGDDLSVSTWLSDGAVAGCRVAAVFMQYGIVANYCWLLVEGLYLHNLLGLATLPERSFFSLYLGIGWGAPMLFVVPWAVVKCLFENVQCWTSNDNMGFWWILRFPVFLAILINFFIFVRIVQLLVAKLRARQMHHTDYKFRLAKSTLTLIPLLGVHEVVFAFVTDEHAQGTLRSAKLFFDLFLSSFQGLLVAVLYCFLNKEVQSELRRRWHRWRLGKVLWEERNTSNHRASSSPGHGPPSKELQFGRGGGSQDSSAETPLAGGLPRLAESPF
Binder,"cAMP Primary assay EC50, n1 [1]","cAMP Primary assay EC50, n2 [1]","cAMP Primary assay EC50, Mean pM GLP-1R [2]","cAMP Primary assay EC50, n1 [2]","cAMP Primary assay EC50, n2 [2]","cAMP Primary assay EC50, n1 [3]","cAMP Primary assay EC50, n2 [3]"
H[Aib]EGS[αMeF]TSDV[αMeS]SK([PEG2′-PEG2′-γGlu-Lauroyl])LEGEK([PEG2′-PEG2′-γGlu-Lauroyl])A[αMeK]EFIK([PEG2′-PEG2′-γGlu-Lauroyl])FVVEGG-NH2 [SEQ ID NO: 449],19.7 nM,19.7 nM,246 pM,216 pM,276 pM,19.7 nM,19.7 nM
H[Aib]EGS[αMeF]TSDVSK([PEG2′-PEG2′-γGlu-Lauroyl])YLEGEK([PEG2′-PEG2′-γGlu-Lauroyl])A[αMeK]EFIK([PEG2′-PEG2′-γGlu-Lauroyl])FVVEGG-NH2 [SEQ ID NO: 445],19.5 nM,19.5 nM,260 pM,242 pM,277 pM,19.5 nM,19.5 nM
H[Aib]EGS[αMeF]TSDVSK([PEG2′-PEG2′-γGlu-Lauroyl])YLEK([PEG2′-PEG2′-γGlu-Lauroyl])EAA[αMeK]EFIAK([PEG2′-PEG2′-γGlu-Lauroyl])VVEGG-NH2 [SEQ ID NO: 459],19.7 nM,19.7 nM,100 pM,89.5 pM,111 pM,19.7 nM,19.7 nM
H[Aib]EGS[αMeF]TSDV[αMeS]SK([PEG2′-PEG2′-γGlu-Lauroyl])LEK([PEG2′-PEG2′-γGlu-Lauroyl])EAA[αMeK]EFIK([PEG2′-PEG2′-γGlu-Lauroyl])FVVEGG-NH2 [SEQ ID NO: 447],19.7 nM,19.7 nM,150 pM,123 pM,176 pM,19.7 nM,19.7 nM
H[Aib]EGS[αMeF]TSDVSK([PEG2′-PEG2′-γGlu-Lauroyl])YLEGK([PEG2′-PEG2′-γGlu-Lauroyl])AA[αMeK]EFIK([PEG2′-PEG2′-γGlu-Lauroyl])FVVEGG-NH2 [SEQ ID NO: 444],19.7 nM,19.7 nM,144 pM,125 pM,162 pM,19.7 nM,19.7 nM
H[Aib]EGS[αMeF]TSDV[αMeS]SK([PEG2′-PEG2′-γGlu-Lauroyl])LEGK([PEG2′-PEG2′-γGlu-Lauroyl])AA[αMeK]EFIK([PEG2′-PEG2′-γGlu-Lauroyl])FVVEGG-NH2 [SEQ ID NO: 448],19.9 nM,19.9 nM,92.4 pM,78.8 pM,106 pM,19.9 nM,19.9 nM
H[Aib]EGS[αMeF]TSDV[αMeS]SYK([PEG2′-PEG2′-γGlu-Lauroyl])EK([PEG2′-PEG2′-γGlu-Lauroyl])EAA[αMeK]EFIK([PEG2′-PEG2′-γGlu-Lauroyl])FVVEGG-NH2 [SEQ ID NO: 451],19.7 nM,19.5 nM,93.4 pM,28.8 pM,158 pM,19.7 nM,19.5 nM
H[Aib]EGS[αMeF]TSDVSK([PEG2′-PEG2′-γGlu-Lauroyl])YLEK([PEG2′-PEG2′-γGlu-Lauroyl])EAA[αMeK]EFIK([PEG2′-PEG2′-γGlu-Lauroyl])FVVEGG-NH2 [SEQ ID NO: 443],19.4 nM,19.4 nM,223 pM,192 pM,254 pM,19.4 nM,19.4 nM
